Experimental data as given in the supplement of paper PMC12764529.
± gives the half width of the 95% confidence interval.

experiment: folding stability dG unfold from chymotrypsin proteolysis; higher = more stable
Summary of the method: (§1)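 Designed mini-proteins with no cysteine and under 80 residues were kept only if AlphaFold2 dimer inter-PAE was above 15. In a PA-tagged cDNA display construct, they were digested with trypsin and chymotrypsin and then sequenced. K50 was inferred by Bayesian fitting of counts, and unfolding free energy was derived per protease or combined against a sequence-predicted unfolded-state K50 and a shared folded-state K50.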

Row | Sequence | folding stability dG unfold [kcal/mol]
1 | SAGGSAGGSMTFEILPDGKTKTLTLDEAKELILNEVPPDTTVVNLDTGKVISAEEFLKLLGIKVSAGGSAGG [r6_937_JUSTAS] | 0.943 ± 0.084
2 | SAGGSAGGSAGGGVGIAEISFDPETQTVTIKAYNPETEEITEITIPVTNPLPLDLSDITSAGGSAGGSAGGS [r10_331_TrMRF] | 0.858 ± 0.14
3 | SAGGSAGGSLDPGEEVKIEITDWHPPNGYYRIKIEFPNGPPIDIWMPPDDPQQMKEQAKDLIKSAGGSAGGS [r20_167_TrROS] | 0.372 ± 0.36
4 | SAGPDKPLKIESIGGKFNPDNGVISIKLKVEDPGDGKTYDYTMQFPVRDPDNGKPYMFTFPMRIKVPDSAGG [r19_129_TrROS] | 0.647 ± 0.16
5 | SAGGSAGGSLSDLPPGVELIAVGDDVVAVRRPDGSVLVFVRERDRVFVRELSPDVSIEEALADSAGGSAGGS [r12_605_TrMRF] | 1.52 ± 0.068
6 | SAPNYVLVIKIKSTNTPYYIPVPEDVEIVVKKNKNGEITAVVKVKDPETGEYFVITFSGDAKIDKIEPVPSA [r9_467_TrMRF] | 2.93 ± 0.082
7 | SAGGKKIRIVMTEEEIKKLAEALAKELNVEVKIVKVEKKTVFDKNGKPVKTYVVVEIEVKKLPPGVKLSAGG [r13_943_TrROS_Hall] | 1.56 ± 0.056
8 | SAGGMLDLSDVEVLNTVPIGGGNYLVLLKVPKLGKVVVVPASDLKKLKENVPNVKISFTPVAPSESGSAGGS [r16_61_TrMRF] | 1.3 ± 0.072
9 | SAGPPEQKIKIKWYPPDDGQPQEIPGPVDDIKDILDKLGWPVTNIETDPDDNEVEIWVPFPNWWLHIKISAG [r5_521_TrROS] | 1.79 ± 0.069
10 | SAGGSAGGSAGGSGSMSVSGGPSVIVVTLPGGEKVVLPLDELDELYKLPYVSATTVSLPSAGGSAGGSAGGS [r4_348_JUSTAS] | 0.24 ± 0.18
11 | SAGGMEPIEIPAKVKITHNGKEQEYPLENVTIWPMPDGMYMIYNPDKGEMFFINPKNGRLMRIEIDDSAGGS [r16_721_TrROS] | 2.5 ± 0.15
12 | SAGMPKTTVETEIRFVETEEGIEAVAEVRTETETRVVVIPGHLGPEEAIEVLEKLLEEEGLELSRVEIGSAG [r5_305_TrMRF] | 0.353 ± 0.038
13 | SAGGSAGGSAGKKKTITIKIPGMSKEEIAKLIKEKFGPNVKITEIKENKDNLLEITVEVESAGGSAGGSAGG [r11_580_TrROS_Hall] | 2.79 ± 0.19
14 | SAGGKPVRIRSSNGWPIEINPEDGTIKVEFPGYEVEFEVKEDGTIQFQIRNPKDGKPIMPMTLQIEKSAGGS [r16_760_TrROS] | 1.07 ± 0.093
15 | SAGGSAGGSAGGKKIEIEFTVKILREPEPGELVPYEVKGKLEINIDPDGNLKIELKFEPGSAGGSAGGSAGG [r11_607_TrMRF] | 3.26 ± 0.073
16 | SAGGSAGGSFFIRVEYPKGKTRTYPIKNGPIEEALEQLPPGWDNVKVSIYNGNKPVEFEIPLPSAGGSAGGS [r12_767_TrROS] | 1.1 ± 0.074

experiment: folding stability dG unfold (combined trypsin and chymotrypsin); higher = more stable
Summary of the method: as §1

Row | Sequence | folding stability dG unfold [kcal/mol]
17 | SAGMVTITVETTDPQGNWTTKTYEFPLDPGYSLDDVIKRHSPPNAKKYEVTKTEPPPPVTEIKLTVEPSSAG [r5_227_JUSTAS] | 0.822 ± 0.46
18 | SAGGSAGGSAVYRTEDGRWVLVVEEVDGELTVHVYRRVDGRWELVETYPLEDLSPEARAALSAGGSAGGSAG [r3_241_TrROS_Hall] | 2.03 ± 0.053
19 | SAEEEEVVEVELEIEIEMTPEELEELIEALRKAAEELGFEIEDIEIRVERKEDGTLRVTIRVKIRLPKPSAG [r14_109_TrROS_Hall] | 4.2 ± 0.23
20 | SAGGSAGGSAKEFVAKVITPDGKPFTIPFGGETEEEAIEKLKEAIKKAFPEYKGVKIELEEKSAGGSAGGSA [r18_434_TrMRF] | 0.791 ± 0.2
21 | SAGGSAGGTAEQIREIVEQLFRKRGMEPKKIEIKRVERNGDKVTIEVEWRWDNGRKRPRNIQIPSAGGSAGG [r6_841_TrROS] | 1.18 ± 0.17
22 | SAGGSAGGSMVTPDGRLVIEIEVSEEDIEKLKEEARKKLGVKEVKVEVEEKDGKLKVRIVVEPSAGGSAGGS [r12_929_TrROS_Hall] | 1.77 ± 0.29
23 | SAGGSAGGWRIKIMPMGGKKKKIPIDSPEEIIDKIQKEAKEDGLPGNVRITVEYNGQKRTFTIRSAGGSAGG [r6_532_TrROS] | 0.658 ± 0.2
24 | SAGGAGPEKAEELARALAAELEEEGREWRFKITYSAEPEILSIDVYPLSEPLVDDAKPGYRTLYYDAPSAGG [r13_693_TrMRF] | 0.957 ± 0.12
25 | SAGGMTETITGEFDDEEEAIAYAKKIVKEKYPNKNVTMEIETTYDPKTGKYKVTATITIPDEGEEHHSAGGS [r8_17_JUSTAS] | 5.94 ± 0.37
26 | SAGGSAGGSAMTAREIADELVKEGKEVKVTVRRPGEEKEITVTKEGEPLPPGAEIVKIEEVSAGGSAGGSAG [r3_421_TrROS_Hall] | 0.0343 ± 0.14
27 | SAGGSGDPNAAPVVVKVTIDITRPTADDSYVTSPVELTLLESEVDEFLAELEKEPDLELKVEVTLESAGGSA [r2_270_JUSTAS] | 1.07 ± 0.11
28 | SAGGMKIKIEIEPEGDVVKVKIEIELPEGKVEVVEEEEAEVFEDGKIKVRFRVRRKDGPEFEFELDISAGGS [r8_449_TrMRF] | 4.17 ± 0.18
29 | SAGGSAGGSAGMTPEEEVEYEIEVPDPNSDNLKTKIKLKFPVGTPEEEIKKKAEELAKKLSAGGSAGGSAGG [r11_516_JUSTAS] | 1.73 ± 0.19
30 | SAGGSAGGSSMPFLNPDGHPAVLVEVDGSTGSLSVELRGPDGRPVLQVSVSVSGPATVTVRVGSAGGSAGGS [r12_960_JUSTAS] | 2.61 ± 0.079
31 | SAGGAFEMSNEYWFPDGFRVKLKVEVYPNGMFMLDLEIEPIPPPPPIKIEKDPDGEYKYDPNGQPQKDSAGG [r13_151_TrROS] | 2.91 ± 0.38
32 | SAGGSAGGSMTFEILPDGKTKTLTLDEAKELILNEVPPDTTVVNLDTGKVISAEEFLKLLGIKVSAGGSAGG [r6_937_JUSTAS] | 0.998 ± 0.084

Row | Sequence | folding stability dG unfold [kcal/mol]
33 | SAGGSAGGSAGGGVGIAEISFDPETQTVTIKAYNPETEEITEITIPVTNPLPLDLSDITSAGGSAGGSAGGS [r10_331_TrMRF] | 0.725 ± 0.2
34 | SAGGSAGGSLDPGEEVKIEITDWHPPNGYYRIKIEFPNGPPIDIWMPPDDPQQMKEQAKDLIKSAGGSAGGS [r20_167_TrROS] | 0.107 ± 0.23
35 | SAGPDKPLKIESIGGKFNPDNGVISIKLKVEDPGDGKTYDYTMQFPVRDPDNGKPYMFTFPMRIKVPDSAGG [r19_129_TrROS] | 0.607 ± 0.13
36 | SAGGSAGGSLSDLPPGVELIAVGDDVVAVRRPDGSVLVFVRERDRVFVRELSPDVSIEEALADSAGGSAGGS [r12_605_TrMRF] | 1.44 ± 0.057
37 | SAPNYVLVIKIKSTNTPYYIPVPEDVEIVVKKNKNGEITAVVKVKDPETGEYFVITFSGDAKIDKIEPVPSA [r9_467_TrMRF] | 2.63 ± 0.19
38 | SAGGKKIRIVMTEEEIKKLAEALAKELNVEVKIVKVEKKTVFDKNGKPVKTYVVVEIEVKKLPPGVKLSAGG [r13_943_TrROS_Hall] | 1.57 ± 0.16
39 | SAGGMLDLSDVEVLNTVPIGGGNYLVLLKVPKLGKVVVVPASDLKKLKENVPNVKISFTPVAPSESGSAGGS [r16_61_TrMRF] | 1.09 ± 0.059
40 | SAGPPEQKIKIKWYPPDDGQPQEIPGPVDDIKDILDKLGWPVTNIETDPDDNEVEIWVPFPNWWLHIKISAG [r5_521_TrROS] | 1.53 ± 0.12
41 | SAGGSAGGSAGGSGSMSVSGGPSVIVVTLPGGEKVVLPLDELDELYKLPYVSATTVSLPSAGGSAGGSAGGS [r4_348_JUSTAS] | 1.13 ± 0.14
42 | SAGGMEPIEIPAKVKITHNGKEQEYPLENVTIWPMPDGMYMIYNPDKGEMFFINPKNGRLMRIEIDDSAGGS [r16_721_TrROS] | 1.99 ± 0.19
43 | SAGMPKTTVETEIRFVETEEGIEAVAEVRTETETRVVVIPGHLGPEEAIEVLEKLLEEEGLELSRVEIGSAG [r5_305_TrMRF] | 0.542 ± 0.082
44 | SAGGSAGGSAGKKKTITIKIPGMSKEEIAKLIKEKFGPNVKITEIKENKDNLLEITVEVESAGGSAGGSAGG [r11_580_TrROS_Hall] | 2.99 ± 0.24
45 | SAGGKPVRIRSSNGWPIEINPEDGTIKVEFPGYEVEFEVKEDGTIQFQIRNPKDGKPIMPMTLQIEKSAGGS [r16_760_TrROS] | 0.98 ± 0.072
46 | SAGGSAGGSAGGKKIEIEFTVKILREPEPGELVPYEVKGKLEINIDPDGNLKIELKFEPGSAGGSAGGSAGG [r11_607_TrMRF] | 3.06 ± 0.15
47 | SAGGSAGGSFFIRVEYPKGKTRTYPIKNGPIEEALEQLPPGWDNVKVSIYNGNKPVEFEIPLPSAGGSAGGS [r12_767_TrROS] | 0.806 ± 0.091
